Values quoted from earlier work as cited in patent US20020119948A1, “METHOD FOR EXTENDING THE SATIETY OF FOOD BY ADDING A NUTRITIONAL COMPOSITION DESIGNED TO STIMULATE CHOLECYSTOKININ(CCK)” (PacificHealth Laboratories, Inc., priority 2000, published 2002).

Test system: Individuals
Details: CCK administered by injection

B1: cholecystokinin (peptide, UniProt P06307 21-115, looked up)
Cholecystokinin: QPVPPADPAGSGLQRAEEAPRRQLRVSQRTDGESRAHLGALLARYIQQARKAPSGRMSIVKNLQNLDPSHRISDRDYMGWMDFGRRSAEEYEYPS
modifications: Cholecystokinin
decrease in caloric intake: 16-22%
